Experimental data published in patent US20190194276A1 (MAYO FOUNDATION FOR MEDICAL EDUCATION AND RESEARCH, published 2019).

Biological target: T1, endogenous IQGAP1 (human, UniProt P46940 2-1657)
T1 construct: also called cellular IQGAP1
Experiment: TAP of SFB-FOXO1 from 293T cells, LC-MS/MS

T1 sequence (P46940 2-1657 limits assumed): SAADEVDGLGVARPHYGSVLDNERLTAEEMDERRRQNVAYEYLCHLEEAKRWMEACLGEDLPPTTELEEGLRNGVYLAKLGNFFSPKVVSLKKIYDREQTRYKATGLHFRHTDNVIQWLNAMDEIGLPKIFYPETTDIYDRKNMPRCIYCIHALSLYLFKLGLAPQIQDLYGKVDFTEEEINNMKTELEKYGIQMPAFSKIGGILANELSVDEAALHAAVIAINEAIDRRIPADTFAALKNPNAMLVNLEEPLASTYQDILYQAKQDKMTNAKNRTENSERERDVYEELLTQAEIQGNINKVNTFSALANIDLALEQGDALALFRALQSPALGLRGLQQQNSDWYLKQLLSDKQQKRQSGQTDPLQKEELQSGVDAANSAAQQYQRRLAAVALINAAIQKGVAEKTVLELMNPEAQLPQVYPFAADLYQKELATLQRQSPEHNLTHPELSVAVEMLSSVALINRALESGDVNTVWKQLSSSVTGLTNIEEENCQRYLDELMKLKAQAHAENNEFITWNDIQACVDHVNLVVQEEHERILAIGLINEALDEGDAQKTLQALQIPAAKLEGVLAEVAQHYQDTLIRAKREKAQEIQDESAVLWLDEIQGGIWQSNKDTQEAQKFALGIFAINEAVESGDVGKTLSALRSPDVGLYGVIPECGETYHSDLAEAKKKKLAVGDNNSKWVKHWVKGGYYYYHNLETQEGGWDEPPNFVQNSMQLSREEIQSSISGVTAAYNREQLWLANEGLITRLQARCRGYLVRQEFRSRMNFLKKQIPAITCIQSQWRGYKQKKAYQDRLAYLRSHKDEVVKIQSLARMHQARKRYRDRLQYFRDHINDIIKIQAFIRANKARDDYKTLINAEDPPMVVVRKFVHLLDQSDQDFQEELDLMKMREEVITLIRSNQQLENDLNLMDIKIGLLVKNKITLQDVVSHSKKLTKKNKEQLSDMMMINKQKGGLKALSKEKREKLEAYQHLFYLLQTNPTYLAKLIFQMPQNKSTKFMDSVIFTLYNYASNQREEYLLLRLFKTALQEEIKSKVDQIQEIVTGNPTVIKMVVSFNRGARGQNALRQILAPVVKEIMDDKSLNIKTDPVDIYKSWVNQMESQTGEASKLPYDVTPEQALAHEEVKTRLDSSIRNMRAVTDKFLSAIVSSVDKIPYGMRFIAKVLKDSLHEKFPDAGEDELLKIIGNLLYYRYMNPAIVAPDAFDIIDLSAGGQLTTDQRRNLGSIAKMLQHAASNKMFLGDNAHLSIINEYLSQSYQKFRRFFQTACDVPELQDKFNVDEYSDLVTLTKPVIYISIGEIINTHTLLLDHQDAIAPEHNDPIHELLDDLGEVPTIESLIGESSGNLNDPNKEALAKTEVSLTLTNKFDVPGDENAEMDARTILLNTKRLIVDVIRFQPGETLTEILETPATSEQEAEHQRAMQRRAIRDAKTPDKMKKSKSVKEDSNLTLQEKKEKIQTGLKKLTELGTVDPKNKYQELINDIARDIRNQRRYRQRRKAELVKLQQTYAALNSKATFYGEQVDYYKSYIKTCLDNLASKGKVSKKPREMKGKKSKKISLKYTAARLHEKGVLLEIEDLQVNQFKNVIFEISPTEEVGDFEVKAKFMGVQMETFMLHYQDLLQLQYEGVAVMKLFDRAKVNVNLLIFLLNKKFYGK

binding result: binds
B1: SFB-tagged FOXO1 (other, human, UniProt Q12778 1-655, looked up)
chain: MAEAPQVVEIDPDFEPLPRPRSCTWPLPRPEFSQSNSATSSPAPSGSAAANPDAAAGLPSASAAAVSADFMSNLSLLEESEDFPQAPGSVAAAVAAAAAAAATGGLCGDFQGPEAGCLHPAPPQPPPPGPLSQHPPVPPAAAGPLAGQPRKSSSSRRNAWGNLSYADLITKAIESSAEKRLTLSQIYEWMVKSVPYFKDKGDSNSSAGWKNSIRHNLSLHSKFIRVQNEGTGKSSWWMLNPEGGKSGKSPRRRAASMDNNSKFAKSRSRAAKKKASLQSGQEGAGDSPGSQFSKWPASPGSHSNDDFDNWSTFRPRTSSNASTISGRLSPIMTEQDDLGEGDVHSMVYPPSAAKMASTLPSLSEISNPENMENLLDNLNLLSSPTSLTVSTQSSPGTMMQQTPCYSFAPPNTSLNSPSPNYQKYTYGQSSMSPLPQMPIQTLQDNKSSYGGMSQYNCAPGLLKELLTSDSPPHNDIMTPVDPGVAQPNSRVLGQNVMMGPNSVMSTYGSQASHNKMMNPSSHTHPGHAQQTSAVNGRPLPHTVSTMPHTSGMNRLTQVKTPVQVPLPHPMQMSALGGYSSVSSCNGYGRMGLLHQEKLPSDLDGMFIERLDCDMESIIRNDLMDGDTLDFNFDNVLPNQSFPHSVKTTTHSWVSG
notes: also called SFB-FOXO1; not shown: about 12 kDa, 119 amino acid
